Data on 1 molecule can be found in publication PMC3738494, “A Systematic Analysis of Host Factors Reveals a Med23-Interferon-λ Regulatory Axis against Herpes Simplex Virus Type 1 Replication” (PLoS Pathogens, 2013).

Some results are limits rather than exact numbers.

The target in the assay is T1, Med23, myc-tagged fusion protein expressed in HEK cells (human, UniProt Q9ULK4 1-1368).
T1 sequence (looked up): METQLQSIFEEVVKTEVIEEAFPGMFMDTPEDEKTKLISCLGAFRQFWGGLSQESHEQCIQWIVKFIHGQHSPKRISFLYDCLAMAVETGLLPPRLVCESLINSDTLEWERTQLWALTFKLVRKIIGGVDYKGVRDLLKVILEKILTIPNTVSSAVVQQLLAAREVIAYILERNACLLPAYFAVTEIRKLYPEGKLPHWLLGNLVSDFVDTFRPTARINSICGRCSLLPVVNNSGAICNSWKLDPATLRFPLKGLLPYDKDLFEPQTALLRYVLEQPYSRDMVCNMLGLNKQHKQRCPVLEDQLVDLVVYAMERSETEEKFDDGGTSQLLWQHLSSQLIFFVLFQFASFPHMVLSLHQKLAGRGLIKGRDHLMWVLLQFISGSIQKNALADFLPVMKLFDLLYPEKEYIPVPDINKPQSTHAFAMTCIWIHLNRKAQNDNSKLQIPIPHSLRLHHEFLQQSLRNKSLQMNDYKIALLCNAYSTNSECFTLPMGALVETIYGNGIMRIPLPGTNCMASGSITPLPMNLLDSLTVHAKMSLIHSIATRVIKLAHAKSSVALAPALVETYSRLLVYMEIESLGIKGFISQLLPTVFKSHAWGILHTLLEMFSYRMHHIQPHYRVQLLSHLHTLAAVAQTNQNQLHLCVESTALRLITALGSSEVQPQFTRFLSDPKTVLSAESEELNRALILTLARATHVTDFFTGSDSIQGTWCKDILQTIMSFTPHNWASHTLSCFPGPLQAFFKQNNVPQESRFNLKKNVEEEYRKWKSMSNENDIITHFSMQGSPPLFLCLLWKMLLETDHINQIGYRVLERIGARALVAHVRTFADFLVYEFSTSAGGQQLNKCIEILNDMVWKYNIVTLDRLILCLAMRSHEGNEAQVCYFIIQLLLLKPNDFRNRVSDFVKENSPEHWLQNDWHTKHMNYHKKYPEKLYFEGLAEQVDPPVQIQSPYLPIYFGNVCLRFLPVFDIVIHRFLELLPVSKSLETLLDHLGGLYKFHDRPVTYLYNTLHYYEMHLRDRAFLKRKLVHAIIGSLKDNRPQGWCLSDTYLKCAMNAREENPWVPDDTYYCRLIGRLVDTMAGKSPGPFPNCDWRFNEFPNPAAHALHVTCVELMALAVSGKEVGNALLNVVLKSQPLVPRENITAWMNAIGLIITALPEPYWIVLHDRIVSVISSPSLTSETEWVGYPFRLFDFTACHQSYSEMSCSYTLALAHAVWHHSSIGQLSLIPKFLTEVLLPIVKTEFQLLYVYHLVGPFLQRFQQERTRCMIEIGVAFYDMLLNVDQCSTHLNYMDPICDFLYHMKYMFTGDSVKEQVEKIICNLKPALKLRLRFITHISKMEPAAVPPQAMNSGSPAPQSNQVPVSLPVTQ
The assay is described as follows: cell-based or functional assay.

B1: IRF7, HA-tagged, expressed in HEK cells (natural protein, human, UniProt Q92985 1-503, looked up)
chain: MALAPERAAPRVLFGEWLLGEISSGCYEGLQWLDEARTCFRVPWKHFARKDLSEADARIFKAWAVARGRWPPSSRGGGPPPEAETAERAGWKTNFRCALRSTRRFVMLRDNSGDPADPHKVYALSRELCWREGPGTDQTEAEAPAAVPPPQGGPPGPFLAHTHAGLQAPGPLPAPAGDKGDLLLQAVQQSCLADHLLTASWGADPVPTKAPGEGQEGLPLTGACAGGPGLPAGELYGWAVETTPSPGPQPAALTTGEAAAPESPHQAEPYLSPSPSACTAVQEPSPGALDVTIMYKGRTVLQKVVGHPSCTFLYGPPDPAVRATDPQQVAFPSPAELPDQKQLRYTEELLRHVAPGLHLELRGPQLWARRMGKCKVYWEVGGPPGSASPSTPACLLPRNCDTPIFDFRVFFQELVEFRARQRRGSPRYTIYLGFGQDLSAGRPKEKSLVLVKLEPWLCRVHLEGTQREGVSSLDSSSLSLCLSSANSLYDDIECFLMELEQPA
Consider B1, for which the “IFN-λ1 promoter luciferase reporter in A549 cells, IRF7 co-expressed with Med23 (IRF7 alone ~9-fold over background)” value is roughly 18 fold and the “IFN-λ3 in the supernatant of A549 cells by ELISA, Med23 co-expressed with IRF7 against either alone” value was greater than 2 fold.
